Data on 2 molecules can be found in patent US20130302347A1 (Genentech, published 2013).

One assay addresses TNFα (UniProt P01375 77-233). The assay can be described thus: SPR screen of TNF-like ligands. The procedure: (§1) Surface plasmon resonance (SPR) was run on a BiaCore 3000 (GE healthcare, Piscataway, N.J.) at 25° C. using anti-human IgG F(ab′)₂ (Jackson Immunoresearch, West Grove, Pa.) amine-coupled to BiaCore CM5 sensor chips. For kinetic analysis of protein interactions, Fc-fusion proteins at 25 μg/ml were first captured onto sensor chips by injecting them for 3 min at 5 μl/min. Then, test proteins diluted to their indicated concentrations in HBS-P buffer (0.01 M Hepes, pH 7.4 0.15 M NaCl 0.005% Surfactant P20) were injected for 3 min at 30 μl/min. Dissociation in HBS-P buffer alone was then measured at a flow rate of […]. Sensor chips surfaces were regenerated by injecting 10 mM glycine pH 1.5 for 30 s after each cycle. Kinetic parameters were determined by fitting the data to a 1:1 Langmuir model using the Biacore 3000 evaluation software (GE Healthcare).

Another assay has as its target T1, TL1A (UniProt O95150 72-251).
T1 sequence (looked up): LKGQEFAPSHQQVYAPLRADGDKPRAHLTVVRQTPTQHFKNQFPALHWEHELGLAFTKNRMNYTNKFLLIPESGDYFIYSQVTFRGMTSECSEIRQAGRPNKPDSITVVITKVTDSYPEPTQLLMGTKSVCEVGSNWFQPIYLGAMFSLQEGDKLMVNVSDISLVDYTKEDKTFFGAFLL
As to the kind of experiment: SPR screen of TNF-like ligands. Here is the method:
as §1

In the next assay the target is T2, CD27L (UniProt P32970 39-193, limits assumed).
T2 sequence (looked up): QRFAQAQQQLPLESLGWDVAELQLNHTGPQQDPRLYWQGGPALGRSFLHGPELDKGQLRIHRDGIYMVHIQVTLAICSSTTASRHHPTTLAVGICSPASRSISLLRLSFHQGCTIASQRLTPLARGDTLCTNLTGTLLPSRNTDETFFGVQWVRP
The assay can be described thus: SPR screen of TNF-like ligands. The procedure: as §1

The next assay concerns the target T3, CD30L (UniProt P32971 63-234).
T3 sequence (looked up): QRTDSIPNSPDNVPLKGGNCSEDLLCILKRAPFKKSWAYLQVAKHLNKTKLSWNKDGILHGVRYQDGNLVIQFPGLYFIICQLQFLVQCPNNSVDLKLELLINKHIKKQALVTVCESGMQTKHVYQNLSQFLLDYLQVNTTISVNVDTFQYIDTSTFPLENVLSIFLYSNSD
The assay can be described thus: SPR screen of TNF-like ligands. The procedure: as §1

A further assay concerns the target T4, EDA-A1 (UniProt Q92838 245-391, limits assumed).
T4 sequence (looked up): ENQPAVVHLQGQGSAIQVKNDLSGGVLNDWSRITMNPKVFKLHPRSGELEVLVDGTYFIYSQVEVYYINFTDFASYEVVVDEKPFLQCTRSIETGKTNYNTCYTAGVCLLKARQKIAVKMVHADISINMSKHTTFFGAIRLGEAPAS
The assay can be described thus: SPR screen of TNF-like ligands. The procedure:
as §1

A further assay addresses TNFSF14 (UniProt O43557 74-240, limits assumed). The assay can be described thus: SPR screen of TNF-like ligands. The procedure: as §1
Another assay addresses 4-1 BBL (UniProt P41273 71-254, limits assumed). As to the kind of experiment: SPR screen of TNF-like ligands. The procedure:
as §1

In another assay the target is TRAIL (UniProt P50591 114-281). As to the kind of experiment: SPR screen of TNF-like ligands. Here is the method: as §1
For a further assay, the target named is BAFF (UniProt Q9Y275 134-285, limits assumed). The assay can be described thus: SPR screen of TNF-like ligands. The procedure:
as §1

Another assay addresses T5, RANKL (UniProt O14788 140-317, limits assumed).
T5 sequence (looked up): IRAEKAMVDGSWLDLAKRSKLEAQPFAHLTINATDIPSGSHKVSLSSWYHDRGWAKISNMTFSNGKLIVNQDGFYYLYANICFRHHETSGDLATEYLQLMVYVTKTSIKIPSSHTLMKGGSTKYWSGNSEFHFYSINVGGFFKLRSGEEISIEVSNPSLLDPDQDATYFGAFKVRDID
The assay can be described thus: SPR screen of TNF-like ligands. The procedure:
as §1

Another assay deals with T6, APRIL (UniProt O75888 105-250, limits assumed).
T6 sequence (looked up): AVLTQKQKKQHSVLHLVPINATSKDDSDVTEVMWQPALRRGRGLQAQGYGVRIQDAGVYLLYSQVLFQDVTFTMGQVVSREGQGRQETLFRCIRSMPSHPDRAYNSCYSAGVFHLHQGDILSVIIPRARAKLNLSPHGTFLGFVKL
The assay can be described thus: SPR screen of TNF-like ligands. The procedure: as §1

The target in another assay is T7, LTα (UniProt P01374 35-205).
T7 sequence (looked up): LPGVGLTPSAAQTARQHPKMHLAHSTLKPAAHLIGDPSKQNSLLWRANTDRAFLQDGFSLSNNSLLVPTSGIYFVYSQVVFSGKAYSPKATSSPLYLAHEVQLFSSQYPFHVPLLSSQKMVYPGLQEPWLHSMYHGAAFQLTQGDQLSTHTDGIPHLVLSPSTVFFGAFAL
The assay can be described thus: SPR screen of TNF-like ligands. The procedure:
as §1

The next assay addresses T8, FasL (UniProt P48023 134-281).
T8 sequence (looked up): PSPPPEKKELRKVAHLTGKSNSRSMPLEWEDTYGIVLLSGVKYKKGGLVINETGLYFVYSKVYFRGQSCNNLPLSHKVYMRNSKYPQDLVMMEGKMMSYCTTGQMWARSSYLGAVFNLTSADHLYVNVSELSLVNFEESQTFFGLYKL
As to the kind of experiment: SPR screen of TNF-like ligands. The procedure: as §1

Assay [1] addresses T9, Mouse TMEM149 on the cell surface (transfected 293T cells; mouse T cells) (mouse, UniProt Q3U4N7 23-345).
T9 construct: also called mTMEM149; murine TMEM149
T9 sequence: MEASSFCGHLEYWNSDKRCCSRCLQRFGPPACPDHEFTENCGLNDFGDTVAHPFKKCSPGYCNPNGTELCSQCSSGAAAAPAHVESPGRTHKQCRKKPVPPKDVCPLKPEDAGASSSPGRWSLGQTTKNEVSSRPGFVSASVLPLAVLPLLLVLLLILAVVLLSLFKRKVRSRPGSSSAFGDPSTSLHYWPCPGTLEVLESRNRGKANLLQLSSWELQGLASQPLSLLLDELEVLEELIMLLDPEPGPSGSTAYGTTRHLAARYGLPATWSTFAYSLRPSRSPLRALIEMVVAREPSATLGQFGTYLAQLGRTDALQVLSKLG
The assay can be described thus: radioligand competition assay; 125I-FLAG-mIGFL against unlabelled ligand on 293T cells expressing mouse TMEM149. The procedure: (§2) Reference is made to Example 11.
(§3) To determine the affinity of IGFL with TMEM149, ligands were iodinated with ¹²⁵I using the lactoperoxidase method and free ¹²⁵I-Na was removed from the labeled protein by gel filtration using a NAP-5 column. 50 μL competition reaction mixtures containing a fixed concentration of iodinated ligand and decreasing concentrations of serially diluted, unlabeled ligand were placed into 96-well plates in triplicate. To each well, HEK293T cells stably expressing human or mouse TMEM149 were added at a density of 100,000 cells in 0.2 mL of binding buffer (Dulbecco's Modified Eagle Medium with 1% bovine serum albumin, 50 mM HEPES pH 7.2 and 2 mM sodium azide). The final concentration of the iodinated ligand with cells in each competition reaction was 100 pM (100,000 cpms per 0.25 mL). The final concentration of the unlabeled ligand with cells in the competition reaction varied, starting at 500 nM and then decreasing by […] dilution for ten concentrations, and included a zero-added, buffer-only sample. […] The filters were counted on a Wallac Wizard 1470 gamma counter (PerkinElmer Life and Analytical Sciences Inc.; Wellesley, Mass.). The binding data was evaluated using NewLigand software (Genentech), which uses the fitting algorithm of Munson and Robard to determine the binding affinity of the antibody (Munson, P. J., and D. Rodbard. 1980.
On the technique in general: Displacement assays read how much labelled ligand stays bound in the presence of the test substance.

For assay [2], the target named is T9, Mouse TMEM149 on the cell surface …. The assay can be described thus: radioligand competition: 125I-FLAG-mIGFL (100 pM) on 293T cells expressing murine TMEM149, unlabelled FLAG-mIGFL varied. The procedure:
as §2, §3

In assay [3] the target is T10, mTMEM149-Fc (mouse TMEM149 extracellular domain with C-terminal human IgG1 Fc) (mouse; human, UniProt Q3U4N7 21-163).
T10 construct: Only the predicted extracellular domain, without the transmembrane domain, was used; the signal peptide is residues 1-22; not shown: human IgG1 Fc, C-terminal
T10 sequence: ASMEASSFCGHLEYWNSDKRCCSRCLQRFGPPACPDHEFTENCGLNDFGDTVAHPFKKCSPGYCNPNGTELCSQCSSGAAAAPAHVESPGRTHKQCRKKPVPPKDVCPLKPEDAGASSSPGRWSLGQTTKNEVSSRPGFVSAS
As to the kind of experiment: SPR, mTMEM149-Fc captured on the chip. Here is the method:
as §1
For orientation: Surface plasmon resonance follows binding to a sensor surface in real time, without labels.

The target in assay [4] is T11, nerve growth factor receptor (NGFR) on transfected 293T cells (UniProt P08138 29-427, limits assumed).
T11 construct: whole, on cells
T11 sequence (looked up): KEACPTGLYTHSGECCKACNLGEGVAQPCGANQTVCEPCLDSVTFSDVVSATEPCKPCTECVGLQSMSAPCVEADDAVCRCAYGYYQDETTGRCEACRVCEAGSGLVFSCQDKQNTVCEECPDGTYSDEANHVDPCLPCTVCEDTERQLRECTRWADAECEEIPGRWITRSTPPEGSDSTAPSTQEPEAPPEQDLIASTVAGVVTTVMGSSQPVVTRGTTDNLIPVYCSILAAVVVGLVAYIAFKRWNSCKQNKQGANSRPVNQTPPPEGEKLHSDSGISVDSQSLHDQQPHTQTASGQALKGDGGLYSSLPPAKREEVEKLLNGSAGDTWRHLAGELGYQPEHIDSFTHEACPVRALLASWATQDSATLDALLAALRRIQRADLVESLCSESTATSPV
The assay can be described thus: flow cytometry of transfected 293T cells, FLAG-mIGFL detected with fluorescent anti-FLAG. A general note: A flow cytometer gives signals particle by particle.

The target of assay [5] is T12, DR4 on transfected 293T cells (UniProt O00220 24-468, limits assumed).
T12 construct: whole, on cells
T12 sequence (looked up): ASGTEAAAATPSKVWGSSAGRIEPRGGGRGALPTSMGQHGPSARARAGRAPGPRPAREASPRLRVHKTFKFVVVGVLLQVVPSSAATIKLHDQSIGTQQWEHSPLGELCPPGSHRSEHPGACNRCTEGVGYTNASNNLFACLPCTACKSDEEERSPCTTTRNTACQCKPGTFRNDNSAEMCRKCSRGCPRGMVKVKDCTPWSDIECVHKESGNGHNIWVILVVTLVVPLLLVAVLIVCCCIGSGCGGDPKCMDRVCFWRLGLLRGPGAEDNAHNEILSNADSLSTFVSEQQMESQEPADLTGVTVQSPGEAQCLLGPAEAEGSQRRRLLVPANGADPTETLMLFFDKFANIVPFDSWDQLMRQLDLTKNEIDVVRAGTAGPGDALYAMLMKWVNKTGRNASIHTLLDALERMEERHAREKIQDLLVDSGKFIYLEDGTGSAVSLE
The description is as above.

Sequence of TNFα (P01375 77-233 limits assumed): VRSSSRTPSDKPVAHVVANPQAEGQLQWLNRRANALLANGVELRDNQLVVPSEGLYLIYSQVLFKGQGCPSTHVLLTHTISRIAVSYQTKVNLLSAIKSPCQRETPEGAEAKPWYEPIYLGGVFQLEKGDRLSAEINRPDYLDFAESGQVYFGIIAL
Sequence of 4-1 BBL (P41273 71-254 limits assumed): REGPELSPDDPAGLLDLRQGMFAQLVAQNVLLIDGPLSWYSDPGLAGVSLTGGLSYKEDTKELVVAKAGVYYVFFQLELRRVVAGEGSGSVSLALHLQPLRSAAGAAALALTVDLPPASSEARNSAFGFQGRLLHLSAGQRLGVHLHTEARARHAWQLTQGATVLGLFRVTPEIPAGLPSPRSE
Sequence of BAFF (Q9Y275 134-285 limits assumed): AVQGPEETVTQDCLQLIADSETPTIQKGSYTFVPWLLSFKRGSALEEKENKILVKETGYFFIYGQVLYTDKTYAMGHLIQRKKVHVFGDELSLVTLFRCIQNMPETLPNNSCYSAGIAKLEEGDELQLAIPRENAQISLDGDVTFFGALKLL
Sequence of TNFSF14 (O43557 74-240 limits assumed): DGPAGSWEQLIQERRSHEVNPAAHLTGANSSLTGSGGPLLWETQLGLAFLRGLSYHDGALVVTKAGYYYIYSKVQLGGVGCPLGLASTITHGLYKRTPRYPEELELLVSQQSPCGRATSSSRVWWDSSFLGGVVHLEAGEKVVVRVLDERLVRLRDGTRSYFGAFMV
Sequence of TRAIL (P50591 114-281 limits assumed): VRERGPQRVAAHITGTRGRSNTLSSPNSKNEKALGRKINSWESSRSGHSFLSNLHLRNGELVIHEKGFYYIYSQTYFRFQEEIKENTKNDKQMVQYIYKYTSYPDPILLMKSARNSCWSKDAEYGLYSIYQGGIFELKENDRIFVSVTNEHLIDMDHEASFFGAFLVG

B1: TMEM149-Fc (human TMEM149 extracellular domain with C-terminal human IgG1 Fc) (Fc fusion)
chain: SQYCGRLEYWNPDNKCCSSCLQRFGPPPCPDYEFRENCGLNDHGDFVTPPFRKCSSGQCNPDGAELCSPCGGGAVTPTPAAGGGRTPWRCRERPVPAKGHCPLTPGNPGAPSSQERSSPASSIAWRTPEPVPQQAWPN
notes: also called recombinant human TMEM149-Fc; Fc-TMEM149; not shown: human IgG1 Fc, C-terminal
B1: the binding result with TNFα, with TL1A, in the assay with CD27L, with CD30L, with EDA-A1 and with TNFSF14 was “no binding” throughout. Also, the binding result with 4-1 BBL, in the assay with TRAIL, with BAFF, with RANKL, in the assay with APRIL and with LTα was “no binding” in each case. Also, the binding result in the assay with FasL was “no binding”.

B2: FLAG-mIGFL (recombinant mouse IGFL with N-terminal FLAG epitope tag) (ligand, not shown: small tags and cut ends)
chain: RKISTFSGPGSWPCNPKCDGRTYNPSEECCVHDTILPFKRINLCGPSCTYRPCFELCCPESYSPKKKFIVKLKVHGERSHCSSSPISRNCKSNKIFHGEDIEDNQLSLRKKSGDQP
notes: also called mIGFL-FLAG; mIGFL1
Regarding B2, the Kd in assay [1] was found to be 730 pM; in assay [3] it was 150 pM. Moreover, the “IC50 (read off the curve)” value in assay [2] is approximately 800 pM. Also, the binding result in [4] and in assay [5] was “no binding” in each case.

By Kd is commonly meant the concentration at which binding is half-saturated.
